Sequences and labels used below:
T1: Smaug NTD (Drosophila melanogaster, UniProt Q23972 70-281)
T1 sequence: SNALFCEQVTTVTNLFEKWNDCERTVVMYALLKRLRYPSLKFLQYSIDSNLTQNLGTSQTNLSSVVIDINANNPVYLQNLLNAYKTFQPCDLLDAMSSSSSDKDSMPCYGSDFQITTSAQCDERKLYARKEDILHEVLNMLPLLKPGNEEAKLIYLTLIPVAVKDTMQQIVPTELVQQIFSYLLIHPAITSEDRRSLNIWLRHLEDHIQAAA

B1: Smaug 73-278Δ156-196 (Smaug part of the single-chain crystallisation construct) (domain or fragment, Drosophila, UniProt Q23972 73-278, looked up)
chain: LFCEQVTTVTNLFEKWNDCERTVVMYALLKRLRYPSLKFLQYSIDSNLTQNLGTSQTNLSSVVIDINANNPVYLQNLLNAYKTARKEDILHEVLNMLPLLKPGNEEAKLIYLTLIPVAVKDTMQQIVPTELVQQIFSYLLIHPAITSEDRRSLNIWLRHLEDHIQ
B2: Smaug NTD (aa 70-281, His-tag removed) (domain or fragment, Drosophila, UniProt Q23972 70-281, looked up)
chain: T1 sequence
B3: Smoothened 970-1003 synthetic peptide (wild-type) (peptide)
peptide: VPSYGEDELQQAMRLLNAASRQRTEAANEDFGGT

One data set has as its target T1, Smaug NTD. Briefly: EMSA. On the technique in general: Mobility shift assays separate free from complexed probe on a gel.
The data set “crystal structure” deals with the molecule itself. Briefly: crystal structure.
The target of data set [1] is B3. Kind of data set: ITC.
For data set [2], the target named is B2. Kind of data set: ITC. (In general: In ITC the heat of successive injections is recorded.)
Data set [3] has as its target B1. Kind of data set: crystal structure.

The source of these data is PMC10410706 (Proceedings of the National Academy of Sciences of the …, 2023).

Take AGCACCGUAAAGC (ssRNA) [R13C]: in the data set with Smaug NTD, the binding result is “no binding”.

For the molecule B1, the binding result in the data set “crystal structure” is listed as “binds”.

For orientation: stoichiometry N means the number of molecules, sites or subunits per partner or assembly. B2: the “stoichiometry N” value in data set [1] is 1.

By Kd is commonly meant the equilibrium constant for the complex coming apart. Read a low Kd as a tighter complex. In data set [2], B3 yielded a Kd of 800 nM.

Turning to VPSYGEDELQQAMRLLNAASRQRTEAANEDFGGT [Smo 970-1003 (Smoothened part of the single-chain crystallisation construct)], in data set [3], the binding result is “binds”.
